{
  "source": "patent US20150246953A1",
  "about": "(Scripps Research, published 2015)",
  "binders": {"B1": {"name": "IgG from multiple myeloma patient plasma 13PL (antibody, V domains shown)", "VH": "AVSLVESGGGTVEPGSTLRLSCAASGFTFGSYAFHWVRQAPGDGLEWVAFISYNGSSKYYANFVKGRFTISRDNSSNTLSLQMNSLKASDTAVYYCARAPDCAQADCHKGAFGYWGQGTLVTVSS", "VL": "DIEMTQSPSSLSASTGDKVTITCQASQDIAQFLDWYQQRPGDTPKLLIYDASNLAIGVPSRFTGSGSGTDFTFTISSLQPEDIAVYYCQHYDDFPISFGPGTKLETKR", "notes": "also called multiple myeloma antibody 13PL"}},
  "molecular_target": "T1, MG281F2 construct, residues 278 to 450 with N-terminal 6-His tag and thrombin cleavage site (Mycoplasma genitalium, UniProt P47523 279-452)",
  "T1 sequence": "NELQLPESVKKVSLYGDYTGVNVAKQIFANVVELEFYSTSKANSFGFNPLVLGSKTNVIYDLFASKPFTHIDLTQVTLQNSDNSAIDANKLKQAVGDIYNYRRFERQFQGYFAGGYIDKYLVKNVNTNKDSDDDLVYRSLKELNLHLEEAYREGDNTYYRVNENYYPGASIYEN",
  "experiment": "Western blot, plasma 13PL as primary antibody",
  "data": [
    {"binder": "B1", "values": [
      {"measurement": "binding result", "value": "no binding (tested: 1 µg/µg and 2 µg/µg)"}
    ]}
  ]
}
